Experimental data from article PMC2861366 (Biochemistry, 2010).
Values joined by “and” are separate entries in the source; they are usually repeats but may differ in a detail not shown here. Equal entries are not always repeated. Where two headings read alike, the source gives them in different places.

B1: E. coli PriA helicase (enzyme, UniProt P17888 1-732, looked up)
chain: MPVAHVALPVPLPRTFDYLLPEGMTVKAGCRVRVPFGKQQERIGIVVSVSDASELPLNELKAVVEVLDSEPVFTHSVWRLLLWAADYYHHPIGDVLFHALPILLRQGRPAANAPMWYWFATEQGQAVDLNSLKRSPKQQQALAALRQGKIWRDQVATLEFNDAALQALRKKGLCDLASETPEFSDWRTNYAVSGERLRLNTEQATAVGAIHSAADTFSAWLLAGVTGSGKTEVYLSVLENVLAQGKQALVMVPEIGLTPQTIARFRERFNAPVEVLHSGLNDSERLSAWLKAKNGEAAIVIGTRSALFTPFKNLGVIVIDEEHDSSYKQQEGWRYHARDLAVYRAHSEQIPIILGSATPALETLCNVQQKKYRLLRLTRRAGNARPAIQHVLDLKGQKVQAGLAPALITRMRQHLQADNQVILFLNRRGFAPALLCHDCGWIAECPRCDHYYTLHQAQHHLRCHHCDSQRPVPRQCPSCGSTHLVPVGLGTEQLEQTLAPLFPGVPISRIDRDTTSRKGALEQQLAEVHRGGARILIGTQMLAKGHHFPDVTLVALLDVDGALFSADFRSAERFAQLYTQVAGRAGRAGKQGEVVLQTHHPEHPLLQTLLYKGYDAFAEQALAERRMMQLPPWTSHVIVRAEDHNNQHAPLFLQQLRNLILSSPLADEKLWVLGPVPALAPKRGGRWRWQILLQHPSRVRLQHIINGTLALINTIPDSRKVKWVLDVDPIEG

What was measured:
[1] = molecular target: T1, χ subunit of DNA polymerase III holoenzyme (E. coli, UniProt P28905 1-147); assay: ITC
[2] = molecular target: T1, χ subunit of DNA polymerase III …; assay: ITC; remark: listed apart in the source
E. coli PriA helicase [3] = molecular target: B1; assay: ITC
E. coli PriA helicase [4] = molecular target: B1; assay: ITC; remark: listed apart in the source
E. coli PriA helicase [5] = molecular target: B1; assay: ITC; remark: listed apart in the source
[6] = molecular target: T1, χ subunit of DNA polymerase III …; assay: ITC; remark: listed apart in the source
[7] = molecular target: T1, χ subunit of DNA polymerase III …; assay: ITC; remark: listed apart in the source
E. coli PriA helicase [8] = molecular target: B1; assay: ITC; remark: listed apart in the source
E. coli PriA helicase [9] = molecular target: B1; assay: ITC; remark: listed apart in the source
E. coli PriA helicase [10] = molecular target: B1; assay: ITC; remark: listed apart in the source
[11] = molecular target: E. coli single stranded DNA binding (SSB) protein (E. coli, UniProt P0AGE0 1-178); assay: AUC
Sequence of E. coli single stranded DNA binding (SSB) protein (P0AGE0 whole entry): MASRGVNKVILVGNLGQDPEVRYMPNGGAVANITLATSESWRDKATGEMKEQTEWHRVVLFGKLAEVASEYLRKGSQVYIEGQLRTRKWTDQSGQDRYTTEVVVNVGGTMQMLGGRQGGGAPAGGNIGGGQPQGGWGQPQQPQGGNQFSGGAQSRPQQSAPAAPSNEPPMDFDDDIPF

T1 sequence (P28905 whole entry): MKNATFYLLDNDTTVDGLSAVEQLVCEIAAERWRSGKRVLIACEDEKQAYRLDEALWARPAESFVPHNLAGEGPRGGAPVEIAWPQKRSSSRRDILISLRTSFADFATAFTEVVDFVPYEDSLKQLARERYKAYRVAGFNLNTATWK

Binder | Ka [1] | dH [1] | stoichiometry N [1] | Ka [2] | dH [2] | stoichiometry N [2] | Ka (E. coli PriA helicase [3]) | dH (E. coli PriA helicase [3]) | stoichiometry N (E. coli PriA helicase [3]) | Ka (E. coli PriA helicase [4]) | dH (E. coli PriA helicase [4]) | stoichiometry N (E. coli PriA helicase [4]) | Ka (E. coli PriA helicase [5]) | dH (E. coli PriA helicase [5]) | stoichiometry N (E. coli PriA helicase [5]) | also measured
MDFDDDIPF [P9, synthetic peptide of the last 9 amino acids of the SSB C-terminus] | 1.6e+06 M⁻¹ | -7.9 ± 0.4 kcal/mol | 1 ± 0.1 | 800000 M⁻¹ | -8.2 ± 0.4 kcal/mol | 0.92 ± 0.04 | 2e+06 M⁻¹ | -6.7 ± 0.3 kcal/mol | 0.89 ± 0.05 | 180000 M⁻¹ | -17.3 ± 0.6 kcal/mol | 0.81 ± 0.12 | – | – | – | –
WMDFDDDIPF [WP9, modified P9 peptide containing a Trp residue on the N terminal side] | 1.2e+06 M⁻¹ | -8 ± 0.3 kcal/mol | 1.02 ± 0.03 | – | – | – | – | – | – | 230000 M⁻¹ | -13 ± 1.3 kcal/mol | 1.1 ± 0.1 | 1.6e+06 M⁻¹ | -14.5 ± 0.5 kcal/mol | 0.95 ± 0.02 | Ka [6]: 300000 M⁻¹; dH [6]: -9.2 ± 0.4 kcal/mol; stoichiometry N [6]: 0.96 ± 0.03; Ka [7]: 1.6e+06 M⁻¹; Ka (E. coli PriA helicase [8]): 3.4e+06 M⁻¹; dH (E. coli PriA helicase [8]): -17.6 ± 0.2 kcal/mol; Ka (E. coli PriA helicase [9]): 410000 M⁻¹ and 404000 M⁻¹; dH (E. coli PriA helicase [9]): -13.9 kcal/mol and -14.4 kcal/mol; stoichiometry N (E. coli PriA helicase [9]): 0.91 ± 0.11; Ka (E. coli PriA helicase [10]): 225000 M⁻¹; dH (E. coli PriA helicase [10]): -13.7 ± 0.2 kcal/mol; stoichiometry N (E. coli PriA helicase [10]): 1.01 ± 0.1
B1 | – | – | – | – | – | – | – | – | – | – | – | – | – | – | – | stoichiometry N [11]: ≥ 3
PSNEPPMDFDDDIPF [P15, synthetic peptide of the last 15 amino acids of the SSB C-terminus] | 1.5e+06 M⁻¹ | -9.5 ± 0.3 kcal/mol | 0.91 ± 0.02 | 800000 M⁻¹ | -7.7 ± 0.4 kcal/mol | 0.88 ± 0.04 | 1.6e+06 M⁻¹ | -7 ± 0.5 kcal/mol | 1.03 ± 0.06 | 360000 M⁻¹ | -14 ± 0.6 kcal/mol | 0.92 ± 0.03 | 2.7e+06 M⁻¹ | -20.7 ± 0.8 kcal/mol | 0.9 ± 0.02 | –
